Source: paper PMC5576923

Assays:
[1] = molecular target: β-Arrestin1 (human (endogenous in Caco-2 and HCT116)) (UniProt P49407); assay: proximity ligation; Duolink II red kit on fixed, permeabilised cells; PTEN-/- HCT116 cells transfected 24 hr with GFP-tagged EV or PTEN constructs, HCT116 cells as positive control; signal as AI units, n = 35 cells per condition in triplicate
[2] = molecular target: β-Arrestin1 (human (endogenous in Caco-2 and HCT116)) (UniProt P49407); assay: co-IP; competition in cells: Caco-2 or HCT116 cells treated with 10 μM pep24 or 10 μM scrambled control peptide for 24 hr, then β-Arrestin1 immunoprecipitated and ARHGAP21 blotted

β-Arrestin1 (human (endogenous in Caco-2 and HCT116)), sequence (P49407 whole entry): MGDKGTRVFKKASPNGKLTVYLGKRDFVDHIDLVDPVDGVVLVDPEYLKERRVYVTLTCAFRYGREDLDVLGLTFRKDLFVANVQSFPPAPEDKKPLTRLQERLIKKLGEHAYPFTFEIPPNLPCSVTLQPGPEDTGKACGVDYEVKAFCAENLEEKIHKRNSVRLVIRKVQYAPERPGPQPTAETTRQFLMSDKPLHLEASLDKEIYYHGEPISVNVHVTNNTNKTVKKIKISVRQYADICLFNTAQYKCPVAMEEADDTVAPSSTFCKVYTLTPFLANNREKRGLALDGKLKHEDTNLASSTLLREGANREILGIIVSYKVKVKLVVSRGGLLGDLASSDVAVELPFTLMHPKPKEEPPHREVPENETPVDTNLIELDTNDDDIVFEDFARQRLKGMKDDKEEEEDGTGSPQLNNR
cell permeant β-Arrestin1-ARHGAP21 binding disruptor peptide pep24, sequence (Q5T5U3 1331-1355): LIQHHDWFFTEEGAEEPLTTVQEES

Row | Substance | PLA interaction AI [1] | fold change of β-Arrestin1-associated ARHGAP21 (ADU), pep24 vs control peptide, Caco-2 cells [2] | fold change of β-Arrestin1-associated ARHGAP21 (ADU), pep24 vs control peptide, HCT116 cells [2]
1 | GFP-labeled isolated PTEN C2 domain (domain or fragment) | 38.3 AI units | – | –
2 | cell permeant β-Arrestin1-ARHGAP21 binding disruptor peptide pep24 (from UniProt Q5T5U3 1331-1355) | – | 0.63 fold change | 0.39 fold change
